# According to patent US20110263824A1 (JAPAN TOBACCO, published 2011):
# Columns and labels:
# fibronectin [1] = assay: ELISA on fibronectin-immobilized plate, biotinylated HRP detection
# Procedure: (§1) The fibronectin-binding of each low-pI TM2 was compared using a microplate to which fibronectin was immobilized. The concentration of fibronectin was adjusted to 50 μg/mL with a fixation solution exclusive for a New ELISA plate, and the fibronectin solution (50 μL) was added to each New ELISA plate (Sumitomo Bakelite), followed by shaking at 37° C. for 4 hours for immobilization. Then, the plate was washed with 0.1% Triton X-100-containing PBS (300 μL) three times and was then dried naturally.
# (§2) TM2, K26A, K73Q, R104E, K141E, and R104EK141E mutants (50 μL each) were each added to the corresponding well of the plate and left at room temperature for 1 hour. The plate was washed with 300 μL/well of PBST (PBS buffer containing 0.1% Tween 20) three times. Then, biotinylated HRP diluted 5000 times with PBST containing 0.5% BSA was added at 50 μL/well and allowed to react with the mutant at room temperature for 1 hour. After washing with 300 μL/well of PBST three times, 50 μL/well of 1-Step Ultra TMB-ELISA solution was added to each well for color development.
# fibronectin [2] = assay: summary of Example 1-10: ELISA on fibronectin-immobilized plate
# Procedure: as §1, §2
Binder,Binding of fibronectin (A450) (fibronectin [1]),amount of fibronectin binding relative to wild type TM2 (fibronectin [2])
"TM2 R104EK141E (other, TM2 double mutant; also called R104-K141) MSDVQSSLTGTWYNELNSKMELTANKDGTLTGKYLSKVGDVYVPYPLSGRYNLQPPAGQGVALGWAVSWENSKIHSATTWSGQFFSESSPVILTQWLLSSSTAEGDVWESTLVGNDSFTKTAPTEQQIAHAQLHCRAPRLE",0.11,10 to 20 % of wild type TM2
"tamavidin 2 (wild type) (other, also called TM2; TM2WT) MSDVQSSLTGTWYNELNSKMELTANKDGTLTGKYLSKVGDVYVPYPLSGRYNLQPPAGQGVALGWAVSWENSKIHSATTWSGQFFSESSPVILTQWLLSSSTARGDVWESTLVGNDSFTKTAPTEQQIAHAQLHCRAPRLK",1.34,–
"TM2 K26A (other, TM2 mutant) MSDVQSSLTGTWYNELNSKMELTANADGTLTGKYLSKVGDVYVPYPLSGRYNLQPPAGQGVALGWAVSWENSKIHSATTWSGQFFSESSPVILTQWLLSSSTARGDVWESTLVGNDSFTKTAPTEQQIAHAQLHCRAPRLK",0.85,–
"TM2 K141E (other, TM2 mutant) MSDVQSSLTGTWYNELNSKMELTANKDGTLTGKYLSKVGDVYVPYPLSGRYNLQPPAGQGVALGWAVSWENSKIHSATTWSGQFFSESSPVILTQWLLSSSTARGDVWESTLVGNDSFTKTAPTEQQIAHAQLHCRAPRLE",0.21,10 to 20 % of wild type TM2
"TM2 K73Q (other, TM2 mutant) MSDVQSSLTGTWYNELNSKMELTANKDGTLTGKYLSKVGDVYVPYPLSGRYNLQPPAGQGVALGWAVSWENSQIHSATTWSGQFFSESSPVILTQWLLSSSTARGDVWESTLVGNDSFTKTAPTEQQIAHAQLHCRAPRLK",0.98,–
"TM2 R104E (other, TM2 mutant) MSDVQSSLTGTWYNELNSKMELTANKDGTLTGKYLSKVGDVYVPYPLSGRYNLQPPAGQGVALGWAVSWENSKIHSATTWSGQFFSESSPVILTQWLLSSSTAEGDVWESTLVGNDSFTKTAPTEQQIAHAQLHCRAPRLK",0.7,–
